Laboratory results as given in patent US20220135694A1, “NOVEL CD40-BINDING ANTIBODIES” (LAVA THERAPEUTICS B.V., priority 2019, published 2022).

Key:
CD40+ CII target cells = experiment: Cytotoxicity assay: CII target cells with Vγ9Vδ2-T cells; format: cell-based, human; conditions: 1:1 ratio
Method: (§1) CD40^+ CII cells and Vγ9Vδ2-T cells were grown as described in Example 7.
CII target cells were labeled with carboxyfluorescein succinimidyl ester (CFSE; C1157, Thermo Fisher Scientific) and incubated with VHH or medium control for 30 minutes at 37° C. Target cells were then cocultured overnight with Vγ9Vδ2-T cell lines in a 1:1 ratio.
Viability was measured as described in Example 4.

CD40 = target: T1, CD40 (Homo sapiens, UniProt P25942); experiment: CD40 agonistic activity in primary CLL cells, 48 h, flow cytometry; format: cell-based; conditions: FIG. 7A-C
T1 construct: Primary chronic lymphocytic leukemia (CLL) cells express CD40 on the cell surface; endogenous in cells; host or cells: primary CLL PBMCs from untreated CLL patients
T1 sequence (P25942 21-277): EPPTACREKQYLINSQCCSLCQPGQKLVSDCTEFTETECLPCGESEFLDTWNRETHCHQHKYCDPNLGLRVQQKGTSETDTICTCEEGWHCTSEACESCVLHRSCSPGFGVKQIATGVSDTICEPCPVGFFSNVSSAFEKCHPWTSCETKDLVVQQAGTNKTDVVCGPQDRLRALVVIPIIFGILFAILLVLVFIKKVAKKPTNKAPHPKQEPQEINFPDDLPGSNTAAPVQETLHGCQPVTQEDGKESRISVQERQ
Method: PBMCs (≥90% CD5^+CD19^+) from untreated CLL patients were obtained and cryopreserved as described in Example 3. Thawed cells were kept in complete IMDM.
To assess whether binding of the VHH to CD40 has agonistic effects, primary CLL PBMCs were cultured for 48 hours in the presence of VHH, medium control or recombinant multimeric CD40 ligand (rmCD40L; 100 ng/mL, Bioconnect).
After 48 hours, cells were harvested, washed and incubated with AF700-conjugated anti-CD19 (557921), FITC-conjugated anti-CD80 (6109965), APC-conjugated anti-CD86 (555660, all BD Biosciences), PE-conjugated anti-CD5 (12-0059-42, Thermo Fisher Scientific) and PECy7-conjugated anti-CD95 (305621, Biolegend, San Diego, Calif., USA) antibodies for 20 minutes at 4° C. Alternatively, after 48 hours, cells were harvested and viability was measured using Mitotracker Orange (25-minute incubation at 37° C.) and To-pro-3 (10-minute incubation at room temperature; both Thermo Fisher Scientific). Samples were measured on a FACSCanto cytometer (BD Biosciences) and analyzed with Flowjo MacV10.
To assess whether binding of the VHH has agonistic effects, primary CLL PBMCs were cultured with the indicated concentrations of V19S76K-5C8, medium control or rmCD40L for 48 hours and analyzed by flow cytometry as described in Example 4.

Vγ9Vδ2+ cells = target: T2, Vγ9Vδ2+ cells (Homo sapiens, UniProt A0JD36); experiment: Bispecific VHH binding to Vγ9Vδ2-T cell lines, flow cytometry, non-linear regression; conditions: FIGS. 6A and B, read-out: apparent Kd
T2 construct: endogenous in cells; host or cells: healthy donor-derived, expanded Vγ9Vδ2-T cell lines
T2 sequence (A0JD36 20-115): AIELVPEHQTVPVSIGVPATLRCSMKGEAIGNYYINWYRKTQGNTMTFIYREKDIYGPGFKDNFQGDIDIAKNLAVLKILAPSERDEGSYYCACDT
Method: The CLL-derived cell line CII was grown in complete IMDM. Purified Vγ9Vδ2-T cell lines were generated as described previously (de Bruin et al. (2017), Oncoimmunology 7(1): e1375641). In short, Vδ2^+-T cells were isolated from healthy donor (HD) PBMCs using FITC-conjugated anti-Vδ2 TCR (2257030, Sony, San Jose, Calif.) in combination with anti-mouse IgG microbeads (Miltenyi Biotec, Bergisch Gladbach, Germany) and cultured weekly with irradiated feeder mix consisting of PBMCs from 2 HDs, JY cells, IL-7 (10 U/mL), IL-15 (10 ng/mL, R&D Systems) and phytohaemagglutinin (PHA; R30852801, Thermo Fisher Scientific).
Purity of Vγ9Vδ2-T cell lines was maintained at >90%.
VHH binding was tested as described in Example 6.
(§2) After 48 hours, cells were analyzed by flow cytometry as described in Example 2.

Vγ9Vδ2-T cells = experiment: Cytokine and degranulation assay: Vγ9Vδ2-T cell lines with CD40+ CII cells; format: cell-based, human; conditions: for degranulation of Vγ9Vδ2-T cells (CD107a): FIG. 10A
Method: as §1
Vγ9Vδ2-T cell lines were incubated with V19S76K-5C8 or medium control for 30 minutes at 37° C. Subsequently, Vγ9Vδ2-T cells were cocultured with CII cells for 4 hours in a 1:1 ratio in the presence of Brefeldin A (10 μg/mL; B7651, Merck), GolgiStop (554724) and PECy7-conjugated anti-CD107a (561348, both BD Biosciences). Cells were then washed and surface staining was performed with Fixable Viability Dye eFluor506 (65-0866-14), AF700-conjugated anti-CD3 (56-0038-82, both Thermo Fisher Scientific) and FITC-conjugated anti-Vγ9-TCR (IM1463, Beckman Coulter) antibodies. Cytofix/Cytoperm reagent (554722) was used for detection of intracellular cytokines with BUV395-conjugated anti-IFN-γ (563563), […] anti-TNF-α (563418, all BD Biosciences) and PE/Dazzle594-conjugated anti-IL-2 (500343, Biolegend).
Samples were measured on an LSRFortessa cytometer (BD Biosciences) and analyzed with Flowjo MacV10.

primary CLL cells = experiment: Venetoclax sensitivity and Bcl-xL expression of rmCD40L-stimulated primary CLL cells; format: cell-based, human; conditions: V19S76K-5C8 1000 nM before rmCD40L 48 h
[1] = target: T3, human CD40 (CD40-transfected HEK293T cells) (Homo sapiens, UniProt P25942); experiment: Bispecific VHH binding to CD40-transfected HEK293T cells, anti-llama IgG flow cytometry; conditions: 1 μM; FIG. 5
T3 construct: expressed in transfected cells; host or cells: HEK293T
T3 sequence (P25942 21-277): as the sequence (P25942 21-277) above
Method: The embryonic kidney cell line HEK293T, either wildtype (WT) or transfected with human CD40, was grown in complete DMEM.
To assess VHH binding, cells were incubated with V19S76K-5C8 (1 μM) or medium control for 30 minutes at 37° C. Bound VHH was detected by incubation with FITC-conjugated goat-anti-llama IgG-heavy and light chain antibodies (A160-100F, Bethyl Laboratories Inc., Montgomery, Tex., USA) for 20 minutes at 4° C.
as §2

B1: V19S76K-5C8: tag-less bispecific anti-CD40-anti-Vγ9Vδ2-TCR VHH, SEQ ID NO:23 (protein)
VHH: QVQLQESGGGLVQAGGSLRLSCAASGRTFGRSAMGWFRQAPGKEREFVAAIGTRGGSTKYADSVKGRFTISTDNAKNTVYLQMDSLKPEDTAVYRCAVRGPGYPSAAIFQDEYHYWGQGTQVTVSSGGGGSEVQLVESGGGLVQAGGSLRLSCAASGRPFSNYAMGWFRQAPGKEREFVAAISWSGGSTSYADSVKGRFTISRDNAKNTVYLQMNSPKPEDTAIYYCAAQFSGADYGFGRLGIRGYEYDYWGQGTQVTVSS
modifications: antibody sequence
With B1 the EC50 (CD40+ CII target cells; lysis of CII target cells with Vγ9Vδ2-T cells, FIG. 11B, read-out: half maximal effective concentration) was 9.1 µM, the “lysis of CII target cells” value (CD40+ CII target cells; overnight with Vγ9Vδ2-T cells, FIG. 11A) was “increased markedly” and the “CD40 stimulation (expression of CD80, CD86 and CD95)” value (CD40) was “none of the V19S76K-5C8 concentrations tested increased the expression of CD80, CD86 or CD95”. The Kd (Vγ9Vδ2+ cells) was 0.0012 µM, the “degranulation of Vγ9Vδ2-T cells (CD107a)” value (Vγ9Vδ2-T cells; CD40+ CII cells not present) was “did not induce this level of degranulation” and the “degranulation of Vγ9Vδ2-T cells (CD107a)” value (Vγ9Vδ2-T cells; with CD40+ CII cells, 1:1 ratio, 4 hours) was “the large majority of Vγ9Vδ2-T cells degranulated”. For the same molecule, the “IFN-γ, TNF-α and IL-2 production by Vγ9Vδ2-T cells” value (Vγ9Vδ2-T cells; with or without CD40+ CII cells, FIG. 10B-D) was “A similar pattern was observed”, the “sensitivity to venetoclax of rmCD40L-stimulated primary CLL cells” value (primary CLL cells; then venetoclax 24 h, FIG. 9A) was “as sensitive to venetoclax as unstimulated CLL cells” and the Bcl-xL expression (primary CLL cells; FIG. 9B) was “returned to unstimulated levels”. The “binding to CD40-expressing HEK293T cells” value [1] was “binds to the CD40-expressing HEK293T cells”.
